Here are results for one molecule from article PMC3044691 (2011).

This experiment deals with monomeric sCD4 (D1D2). As to the kind of experiment: SPR.

B1: JR-FL gp120 (natural protein)
chain: not shown
Molecule B1 gave a Kd of 12 nM.
